Measurements: the supplement of paper PMC9732359
± gives the uncertainty stated by the source.

Test: protein stability index of a GFP-peptide fusion (yeast GPS) (PSI 1-4); higher = more stable; sorted into four equal gates, so the index is relative within each strain
How it was run: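 Plasmids in a pooled yeast library fused tiled 17-residue yeast protein peptides downstream of GFP and also expressed Cherry. Mid-log cultures grown without leucine were sorted into four equal gates by GFP/Cherry fluorescence ratio. Each gate's plasmids were PCR-amplified and Illumina-sequenced, and reads were matched to strains by barcodes. The protein stability index is derived by multiplying each gate's read frequency by its gate number and summing the results.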

Sequence | protein stability index (doa10∆) | protein stability index (pdr5∆) | protein stability index (san1∆) | protein stability index (ubr1∆)
EDLLECLDRCKEQYNRY [MTR3] | 3.18 ± 0.11 | 3.46 ± 0.08 | 3.24 ± 0.079 | 3.38 ± 0.085
EDMIDQVSKKLSSIEAS [SMC3] | 3.07 ± 0.16 | 2.54 ± 0.15 | 2.84 ± 0.12 | 3.05 ± 0.12
EDMIRSVFDATSDPVMH [RPN1] | – | – | 3.15 ± 0.23 | –
EDVVAISSRTFGQRAVL [RPS0A] | 3.3 ± 0.11 | 3.03 ± 0.056 | 3.02 ± 0.085 | 3.1 ± 0.047
EEAPAPTPAASAPAPAA [FAS2] | 2.8 ± 0.095 | 2.95 ± 0.076 | 2.85 ± 0.091 | 3.02 ± 0.1
EEDYNEFNSIDRVIFRV [PRP8] | 3.27 ± 0.1 | 3.17 ± 0.11 | 3.02 ± 0.19 | 2.94 ± 0.068
EEEYDETHETNISNAKL [YAR002W/NUP60] | 3.35 ± 0.073 | 3.21 ± 0.09 | 3.44 ± 0.087 | 3.31 ± 0.065
EEIPINSSEQESDYEPN [SIR3] | 2.82 ± 0.068 | 3.15 ± 0.067 | 3 ± 0.045 | 2.77 ± 0.048
EEISRLQRDLIQTKEQV [YIL149C/MLP2] | 2.77 ± 0.095 | 2.98 ± 0.15 | 3.13 ± 0.14 | 3.11 ± 0.082
EEIVSNSSRFSDPMLQR [YCS4] | 3.07 ± 0.096 | 2.95 ± 0.082 | 3.28 ± 0.096 | 3.07 ± 0.056
EEKQKSYKFPRGTTAVL [PUP1] | 3.37 ± 0.12 | 3.11 ± 0.13 | 3.14 ± 0.099 | 2.91 ± 0.088
EELFTQLFHSMSIVFGD [UBP6] | 3.17 ± 0.087 | 3.35 ± 0.087 | 3.38 ± 0.05 | 2.98 ± 0.089
EELINAAKGSSTSYAIK [RPS5] | 2.66 ± 0.077 | 1.88 ± 0.051 | 1.43 ± 0.068 | 1.76 ± 0.044
EELRGQQTEHETEIKDL [SMC4] | 3.34 ± 0.13 | 3.43 ± 0.094 | 3.48 ± 0.067 | 3.37 ± 0.053
EENFEATRTLVASIQND [YCG1] | 3.03 ± 0.16 | 3.24 ± 0.11 | 3 ± 0.14 | 2.71 ± 0.14
EEPIKKLCYVLGVEDIT [RET1] | – | – | 3.08 ± 0.15 | –
EEPSRVDPEQEAHNKAL [RPT4] | 3.4 ± 0.16 | 3.31 ± 0.1 | 3.46 ± 0.063 | 3.23 ± 0.11
EERFSELFKGYLADDID [RPL5] | 3.05 ± 0.29 | 3.27 ± 0.24 | 3.3 ± 0.17 | 3.01 ± 0.28
EFIPHSTEYMMQFAKSK [RPN6] | – | 3.28 ± 0.17 | 2.8 ± 0.1 | 1.91 ± 0.14
EFMAGFNIISMTLKEMY [SMC4] | – | 2.83 ± 0.24 | 3.21 ± 0.11 | 3.21 ± 0.089
EFYNEMHRPVHFLQFSE [PRP8] | 2.9 ± 0.086 | 2.51 ± 0.089 | 2.27 ± 0.067 | 2.33 ± 0.058
EGDELENKTKKDNDKNL [SRB4] | 3.33 ± 0.078 | 3.2 ± 0.077 | 3.23 ± 0.055 | 3.27 ± 0.077
EGEAKQKRNAHGYFLQD [ITC1] | 3.18 ± 0.065 | 3.4 ± 0.072 | 3.35 ± 0.035 | 3.32 ± 0.043
EGEYELTEAVEDGPRPF [RPL5] | – | 3.31 ± 0.17 | 3.38 ± 0.066 | –
EGFAADDEPTTPAELVG [FAS1] | 3.3 ± 0.09 | 3.19 ± 0.092 | 3.2 ± 0.071 | 3.19 ± 0.076
EGGEAEFIFGTYNMIDA [ARP7] | 2.79 ± 0.059 | 2.66 ± 0.055 | 2.52 ± 0.054 | 2.83 ± 0.045
EGLCIVAGSKCWAVRAD [RRP45] | 2.38 ± 0.073 | 2.43 ± 0.071 | 2.53 ± 0.079 | 2.57 ± 0.07

Sequence | protein stability index (doa10∆) | protein stability index (pdr5∆) | protein stability index (san1∆) | protein stability index (ubr1∆)
EGMFANANRVFRTRFQD [SMC2] | 2.26 ± 0.097 | 1.76 ± 0.089 | 2.68 ± 0.25 | 2.31 ± 0.078
EGQIIQRSNISTAIKSL [CDC53] | 1.55 ± 0.056 | 2.33 ± 0.099 | 2.46 ± 0.16 | 1.79 ± 0.079
EGSWDRGIPRISTLFQR [PRP8] | 2.79 ± 0.19 | – | 3.24 ± 0.14 | 3.06 ± 0.11
EGTRNRFSYSPPKEGNY [YMR129W/POM152] | 3.19 ± 0.13 | 3.06 ± 0.062 | 2.88 ± 0.043 | 3.13 ± 0.042
EGVEYSFLHVDDKLAYI [POP8] | 1.86 ± 0.097 | 2.1 ± 0.088 | 1.86 ± 0.11 | 2.04 ± 0.074
EHGLQITHTENYNDLIV [BRN1] | 3.5 ± 0.27 | 2.81 ± 0.18 | – | 2.77 ± 0.089
EHGYQSRGFEVMYNGHT [RPB2] | 2.92 ± 0.15 | 2.62 ± 0.18 | 2.88 ± 0.15 | 2.61 ± 0.19
EHIKEGSEIAISSLGYR [SWI3] | 2.78 ± 0.055 | 3.02 ± 0.063 | 2.99 ± 0.05 | 2.95 ± 0.052
EIEMKNKLEKLNSLLTY [SMC4] | 1.71 ± 0.055 | 1.87 ± 0.058 | 1.85 ± 0.1 | 1.61 ± 0.04
EIEQPVTTFVFTGQGSQ [FAS1] | 2.86 ± 0.1 | 2.91 ± 0.075 | 2.49 ± 0.14 | 2.24 ± 0.066
EIFDVTSNGLKKNPNWL [FAS1] | 3.54 ± 0.16 | 3.46 ± 0.11 | 2.64 ± 0.18 | 3.37 ± 0.06
EIKDAETSCDNYHPMNI [SMC4] | 2.64 ± 0.057 | 2.83 ± 0.055 | 3.15 ± 0.043 | 2.98 ± 0.044
EIKDGRSLFLRNRGKIH [YMR153W/NUP53] | 2.01 ± 0.095 | 2.2 ± 0.068 | 1.54 ± 0.16 | 2.46 ± 0.066
EINAVFNELCDPESRTQ [POP1] | 2.91 ± 0.079 | 3.01 ± 0.069 | 2.75 ± 0.092 | 2.93 ± 0.064
EIQEELERFNKRADISK [SMC1] | – | – | – | 3.23 ± 0.18
EIRPEMLGHYLGEFSIT [RPS15] | – | 3.02 ± 0.08 | 3.11 ± 0.19 | 2.87 ± 0.17
EISKKDFVRKGGLQKGK [SIR3] | 2.38 ± 0.11 | 1.91 ± 0.083 | 1.98 ± 0.11 | 1.95 ± 0.092
EITGTSCLTFFQALDSE [ITC1] | 2.46 ± 0.086 | 2.78 ± 0.099 | 2.42 ± 0.1 | 1.82 ± 0.057
EKAIPKDQRATTPYMTK [RPO26] | 2.85 ± 0.043 | 2.98 ± 0.047 | 2.97 ± 0.046 | 3.03 ± 0.044
EKAKSAGTQSSKFSKQQ [RPL24A] | 3.15 ± 0.064 | 3.23 ± 0.076 | 3.32 ± 0.047 | 3.12 ± 0.067
EKASRQQRKQKKNRDKK [RPS24A] | 3.44 ± 0.094 | 3.17 ± 0.075 | 3.25 ± 0.044 | 3.32 ± 0.083
EKDCSLRAIEKNDDNSC [YIL149C/MLP2] | 2.32 ± 0.1 | 2.67 ± 0.077 | 3.06 ± 0.082 | 1.86 ± 0.11
EKELQNEIKQLGSDSSD [SRB4] | 2.95 ± 0.1 | 2.81 ± 0.1 | 2.27 ± 0.087 | 2.85 ± 0.12
EKESVEKQHENAVLELG [SMC3] | 3.36 ± 0.2 | 3.52 ± 0.13 | 2.9 ± 0.1 | 3.42 ± 0.073
EKGKKVSGFKDEVLETV [RPS1B] | 3.39 ± 0.11 | 2.82 ± 0.11 | 3.48 ± 0.11 | 3.44 ± 0.084
EKIKSKKINRRNETSVD [YCG1] | 3.38 ± 0.094 | 3.09 ± 0.085 | 3.19 ± 0.08 | 3.33 ± 0.069
EKKDDNSSKPAFSFGAK [YJL041W/NSP1] | 2.3 ± 0.054 | 1.86 ± 0.039 | 2.02 ± 0.06 | 2.25 ± 0.037
